Assay results taken from patent US11021533.

B1: ZIKV-117 (antibody, V domains shown)
VH: QVQLVESGGGVVRPGGSLRLSCAASGFTFKNYGIHWVRQAPGKGPEWVAFVRYDGNNKYYADSVKGRFTISRDNAKNTLSLQMNSLRVEDTAVYFCARDPETFGGFDYWGQGTLVTVSS
VL: ETVMTQSPATLSVSPGERGTLSCRASESVSSNLAWYQQKPGKAPRLLIYGASTRATGIPDRFSGSGSGTEFTLTISSLQSEDFAVYYCQQYYYSPRTFGQGTKVEVK
B2: ZIKV-88 (antibody, V domains shown)
VH: QVQLLESGGGVVQPGRSLRLSCVASGLTFSTSAMHWVRQAPGKGLEWVAVISYDGSYKFYADSVRDQFTISRDNSKTTLYLQMDGLTPEDTAVYYCARGYNDDSSGSYWYFDLWGRGTLVTVSS
VL: QSVLTQPPSVSAAPGQKVTMSCSGSSSNIGSNFVSWYQQLPGTAPKVLIFDNNQRPSGIPDRFSGSKSGTSATLAITGLQPGDEAVYHCGTWDSSLTFAVFGGGTKLTVL

What was measured:
[1] = biological target: all ZIKV strains tested (MR 766, Dakar 41519, Malaysia P6740, H/PF/2013, Brazil Paraiba 2015); assay: cell-based or functional assay
[2] = biological target: ZIKV strain H/PF/2013 (French Polynesia, 2013) virus (Zika virus, strain H/PF/2013); assay: cell-based or functional assay

| Binder | FRNT50 (focus reduction neutralization test on Vero cells) [1] | FRNT50 (focus reduction neutralization test on Vero cells) [2] |
| --- | --- | --- |
| B1 | 5 to 25 ng/mL |  |
| B2 |  | 420 ng/mL |
